Values quoted from earlier work as cited in article PMC8417749.

Legend:
[1] = biological target: CXCR2 (Homo sapiens) (UniProt P25025)
[2] = biological target: CXCR1 (Homo sapiens) (UniProt P25024)
CXCR1 (Homo sapiens), sequence (P25024 whole entry): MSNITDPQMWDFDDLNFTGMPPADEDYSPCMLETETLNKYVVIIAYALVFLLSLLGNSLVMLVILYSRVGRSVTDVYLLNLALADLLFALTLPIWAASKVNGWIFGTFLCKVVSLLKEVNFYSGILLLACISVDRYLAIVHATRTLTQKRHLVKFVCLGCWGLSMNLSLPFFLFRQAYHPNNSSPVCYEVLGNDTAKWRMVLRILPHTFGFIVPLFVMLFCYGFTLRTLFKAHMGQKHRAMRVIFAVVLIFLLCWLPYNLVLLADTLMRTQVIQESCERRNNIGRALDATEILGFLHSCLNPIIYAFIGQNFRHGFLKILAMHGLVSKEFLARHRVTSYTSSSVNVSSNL

IL-8, sequence (P10145 28-99): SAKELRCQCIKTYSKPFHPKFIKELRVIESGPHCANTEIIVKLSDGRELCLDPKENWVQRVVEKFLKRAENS
CXCR2 (Homo sapiens), sequence (P25025 whole entry): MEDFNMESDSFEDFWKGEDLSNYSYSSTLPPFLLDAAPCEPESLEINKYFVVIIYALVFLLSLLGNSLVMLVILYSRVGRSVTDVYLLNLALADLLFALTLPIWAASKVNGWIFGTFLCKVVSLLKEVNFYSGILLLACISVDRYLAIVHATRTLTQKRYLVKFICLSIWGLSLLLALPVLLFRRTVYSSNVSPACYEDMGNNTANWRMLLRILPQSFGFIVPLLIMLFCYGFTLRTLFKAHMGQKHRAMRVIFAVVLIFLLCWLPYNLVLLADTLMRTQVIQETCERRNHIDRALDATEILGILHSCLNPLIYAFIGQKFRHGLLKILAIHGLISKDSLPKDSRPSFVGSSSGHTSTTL

**Q.** With IL-8 (from UniProt P10145) as the substance, how does the Kd [1] read?
**A.** 2 nM

**Q.** And the Kd [2]?
**A.** 2 nM
